47 molecules from patent publication US20190264194A1 (published 2019) can be followed below.

Experiment [1] addresses T1, human C-reactive protein (human, UniProt P02741 19-224).
T1 construct: Biotinylated or labelled with Alexa Fluor 488; also called CRP; C-RP
T1 sequence (looked up): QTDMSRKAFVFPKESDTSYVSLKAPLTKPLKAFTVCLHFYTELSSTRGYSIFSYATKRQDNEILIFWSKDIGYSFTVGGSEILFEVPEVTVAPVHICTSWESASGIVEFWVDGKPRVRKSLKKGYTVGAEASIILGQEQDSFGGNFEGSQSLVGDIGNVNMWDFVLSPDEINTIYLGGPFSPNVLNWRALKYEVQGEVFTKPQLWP
Nature of the experiment: clones isolated by MACS and FACS from the E. coli OmpA loop 1 15-mer library.

Experiment [2] has as its target T1, human C-reactive protein. The experiment in a line: selection from the E. coli display library. Here is the method: The library was first depleted of streptavidin binding peptides by incubation with streptavidin coated microbeads, e.g., from Qiagen, Inc. (Valencia, Calif.). Then the library was incubated with biotinylated human C-reactive protein at 10 nM final concentration, and two rounds of magnetic selection were used to enrich CRP binding peptides. […] Equilibrium binding affinities were measured in the whole cell format, by determining cell fluorescence at various concentrations of target CRP. See e.g. FIG. 17.

Experiment [3] addresses T2, streptavidin (UniProt P22629 37-163, limits assumed).
T2 construct: Used as phycoerythrin conjugate or on coated beads; also called SA; streptavidin-phycoerythrin
The experiment in a line: selection from the XCCX4CX7CX library displayed in loop 2 of OmpX.

Experiment [4] addresses T2, streptavidin. Nature of the experiment: whole-cell dissociation by flow cytometry, 1-2 uM biotin as competitor. On the procedure:
The apparent binding affinities of a subset of the selected peptides were determined using flow cytometric analysis. […] See Daugherty, P. S., et al. (1998) Protein Eng. 11(9):825-832, which is herein incorporated by reference. […] See Daugherty, P. S., et al. (1998) Protein Eng. 11(9):825-832; and Feldhaus, M. J., et al. (2003) Nat. Biotechnol. 21(2): 163-170, which are herein incorporated by reference. […] Apparent dissociation rate constants (kdiss) were determined for streptavidin, using about 1 to about 2 μM biotin as a competitor to prevent re-binding.
(§1) To obtain equilibrium binding curves, cells were labeled over a range of concentrations, e.g., about 0.1 to about 200 nM, of fluorescently conjugated target proteins (streptavidin-phycoerythrin or CRP-Alexa Fluor® 488) and analyzed by flow cytometry, as above. The corresponding mean fluorescence versus concentration data were fit to a monovalent binding isotherm to obtain the apparent KD. Dissociation rates of streptavidin-binding clones were measured in the presence of about 1 to about 2 μM biotin. Cells were labeled with 50 nM streptavidin-phycoerythrin for 30 minutes at room temperature. The cells were then pelleted, resuspended in PBS with biotin, and immediately analyzed by flow cytometry. Fluorescence data were collected continuously for about five minutes. The dissociation rate constants were then determined as described previously. See Daugherty, P. S., et al. (1998) Protein Eng. 11(9):825-832, which is herein incorporated by reference.

For experiment [5], the target named is T3, human serum albumin (human, UniProt P02768 25-609).
T3 construct: Biotinylated or FITC-conjugated; also called HSA
Nature of the experiment: clones isolated by MACS and FACS from the E. coli OmpA loop 1 15-mer library.

In experiment [6] the target is T2, streptavidin. The experiment in a line: selection from the X4CX3CX4 library displayed in loop 2 of OmpX.
In experiment [7] the target is T1, human C-reactive protein. Nature of the experiment: apparent whole-cell KD, flow cytometry with CRP-Alexa Fluor 488. Here is the method: as §1
For orientation: In flow cytometry, cells or beads pass a laser one at a time.

For TFMPSYYRSWGPPPT (Insert only) [CRP-12], the binding result in experiment [1] is “binds”.
For LMNWRGFMVPRESPK [SEQ ID NO 251], in experiment [2], the binding result is on record as “binds”.
For WTKLKNSRGFELQLD (Insert only) [CRP-8], the binding result in experiment [1] is given as “binds”.
Regarding LCCHPQVCASAGYYACY [SEQ ID NO 273], the binding result in experiment [3] is “binds”.
Broadly, the koff is the rate constant with which the complex falls apart. On to YWVCMNVCMYYTARQ (Insert only) [SA-5], for which the koff in experiment [4] is ~0.001 s⁻¹.
With SYISTWLNFLFCGQS (Insert only) [HSA-3], the binding result in experiment [5] is on record as “binds”.
For the molecule TYSWCANVCMHYS [SEQ ID NO 283], in experiment [6], the binding result was “binds”.
Regarding PTLICMNVCFYDQ [SEQ ID NO 281], the binding result in experiment [6] is listed as “binds”.
As to ICCHPQVCAWNRVFLCK [SEQ ID NO 269], the binding result in experiment [3] is on record as “binds”.
In the case of GTLVCMNFCYLSK [SEQ ID NO 280], the binding result in experiment [6] is on record as “binds”.
In the case of SITICWYTCMVQKTA (Insert only) [SA-10], the koff in experiment [4] is ~0.01 s⁻¹.
In the case of MIFNSRGFLSLMSSG (Insert only) [CRP-6], the Kd in experiment [7] is 8 nM.
KALVCQNVCYTMS [SEQ ID NO 278]: the binding result in experiment [6] was “binds”.
For ACCHPQVCVMALPYHCL [SEQ ID NO 272], in experiment [3], the binding result is recorded as “binds”.
For the molecule WTKLKNSRGFELQLD [SEQ ID NO 254], the binding result in experiment [2] is on record as “binds”.
TDFLSYYRVYRTPLQ (Insert only) [CRP-11]: the binding result in experiment [1] is “binds”.
As to WCCHPQVCSLSLAYKCQ [SEQ ID NO 268], the binding result in experiment [3] is “binds”.
Turning to TDFLSYYRVYRTPLQ [SEQ ID NO 248], the binding result in experiment [2] is given as “binds”.
For LCCHPQNCVSFRHVECR [SEQ ID NO 274], the binding result in experiment [3] is given as “binds”.
For YPPRFQYYRFYYRGP (Insert only) [CRP-10], the Kd in experiment [7] turned out to be 5 nM.
On to NNYSAWLRCLLRAYS (Insert only) [HSA-4], for which the binding result in experiment [5] is reported as “binds”.
With RHLYCWTWRWCHFKD (Insert only) [HSA-2], the binding result in experiment [5] is given as “binds”.
With VRTWNDRGFQQSVDR (Insert only) [CRP-5], the binding result in experiment [1] is given as “binds”.
For the molecule SKWICQNVCYPGL [SEQ ID NO 279], the binding result in experiment [6] is recorded as “binds”.
For RYIMNHRGFYIFVPR [SEQ ID NO 250], in experiment [2], the binding result is given as “binds”.
NPFCSWYRWRNWCTK (Insert only) [HSA-1]: in experiment [5], the binding result is “binds”.
As to TFMPSYYRSWGPPPT [SEQ ID NO 249], the binding result in experiment [2] is “binds”.
Consider ADTICWYVCTISVHA (Insert only) [SA-11], for which the koff in experiment [4] was ~0.01 s⁻¹.
Take FPIYNQRGFITLASP (Insert only) [CRP-2]: in experiment [7], the Kd is 3 nM.
PYLNARGFSVTREQI [SEQ ID NO 252]: in experiment [2], the binding result is recorded as “binds”.
With SHWFCVNVCFRIQ [SEQ ID NO 282], the binding result in experiment [6] is “binds”.
Take VTSLCMNVCYSLTTY (Insert only) [SA-4]: the koff in experiment [4] was ~0.001 s⁻¹.
Take LPVWCVMHVCLTSSR (Insert only) [SA-6]: in experiment [4], the koff was ~0.001 s⁻¹.
QSLVCQNVCWMRE [SEQ ID NO 276]: in experiment [6], the binding result is “binds”.
Consider CMIICQNVCYRKC [SEQ ID NO 277], for which, in experiment [6], the binding result is given as “binds”.
Regarding IMMECFYVCTIANTQ (Insert only) [SA-8], the koff in experiment [4] is ~0.01 s⁻¹.
Turning to ICCHPQVCSGLNRFRCG [SEQ ID NO 270], the binding result in experiment [3] is given as “binds”.
The same measure, in the same setting: the value for YCCHPQVCFLGHRAACP [SEQ ID NO 267] was “binds”.
Turning to LMNWRGFMVPRESPK (Insert only) [CRP-7], in experiment [1], the binding result is reported as “binds”.
On to ICCHPQWCGLTVWWPCK [SEQ ID NO 275], for which, in experiment [3], the binding result was “binds”.
With RYIMNHRGFYIFVPR (Insert only) [CRP-4], in experiment [1], the binding result is “binds”.
Take WCCHPQVCHRAMVRNCI [SEQ ID NO 271]: in experiment [3], the binding result was “binds”.
Regarding HMRWNTRGFLYPAMS (Insert only) [CRP-3], the binding result in experiment [1] was “binds”.
In the case of PYLNARGFSVTREQI (Insert only) [CRP-9], the binding result in experiment [1] is listed as “binds”.
Regarding TTCKYYLSCRWRKDL (Insert only) [CRP-13], the binding result in experiment [1] is “binds”.
With TTCKYYLSCRWRKDL [SEQ ID NO 246], the binding result in experiment [2] is recorded as “binds”.
Regarding TRLICANLCWYAE [SEQ ID NO 284], the binding result in experiment [6] was “binds”.
